The target in assay [1] is T1, human recombinant TGF-b1 (human, UniProt P01137 279-390).
T1 construct: also called TGF-β1; hTGF-β1
Nature of the assay: ELISA, scFv culture on plate-coated TGF-b1, anti-cmyc detection.

The target of assay [2] is T1, human recombinant TGF-b1. Nature of the assay: phage ELISA on plate-coated TGF-b1, anti-fd detection. The procedure: (§1) To perform the ELISA a 96-well maxisorp Nunc-immunoplate (Thermo Scientific, cat. #2022-10) was coated with 50 μl/well of human recombinant TGF-b1 (Acrobiosystems, cat. #TG1-H4212), TGF-b2 (R&D Systems, cat. #302-B2-010) and human recombinant TGF-b3 (Shenandoah Biotechnology, cat. #100-109) at 500 ng/ml in PBS at 4° C. overnight. Wells were blocked by the direct addition of 230 μl of block solution (5% skimmed milk/0.05% Tween20 in PBS) without first washing the plate. Blocking was carried out for 45 min with gentle agitation. Concurrently, the bacterial cultures containing the expressed scFv and the rescued phage were blocked by the direct addition of 120 μl of block solution. The blocked maxisorp plate was washed 3× with PBST (PBS+0.1% Tween20) before applying 150 μl of blocked scFv or phage culture to the wells. Incubation was performed for 1 h at room temperature with gentle agitation before washing of the wells with 4×PBST.
For the phage ELISA, 100 μl of primary rabbit anti-fd bacteriophage Ab (Sigma, cat. #B7786) diluted 1/1000 in PBS+1% BSA was added to wells followed by a 1 h incubation at room temperature with gentle agitation. The plate was washed 4× with PBST before the addition of 100 μl of secondary mouse anti-rabbit IgG (Y-chain specific) HRP conjugate (Sigma, cat. #A1949) diluted 1/15000 in PBS+1% BSA. […]
In general terms: In an ELISA, binding on a coated surface is turned into a signal by an enzyme label.

Assay [3] deals with T1, human recombinant TGF-b1. In words: ELISA, soluble scFv on plate-coated TGFb isoforms. As for the experimental part:
as §1
For the scFv ELISA, 100 μl of primary mouse 9E10 anti-cmyc Ab diluted 1/1000 in PBS+1% BSA was added to wells, followed by a 1 h incubation at room temperature with gentle agitation. […] The ELISA was developed by the addition of 100 μl/well of TMB substrate (ThermoFischer Scientific, cat. #34021), stabilized with 50 μl/well of stop solution (2N sulfuric acid) and absorbance signals read at 450 nm and 620 nm.

The target of assay [4] is T1, human recombinant TGF-b1. In words: competition ELISA on hTGF-β1-coated plate; competitor biotinylated murine 13A1. The procedure:
Nunc Maxisorb ELISA plates were coated overnight at 8° C. with 0.5 μg/ml hTGF-β1 (Peter Sun, NIH) or hTGF-β3 (Shenandoah Biotech) at 0.5 μg/ml in 40 mM glycine buffer pH 9. Plates were washed and blocked with 10% FCS for 1 h at 37° C. In a separate low binding Greiner Bio-One ELISA plate, various concentrations of competing Abs were mixed with a constant concentration of biotinylated parental 13A1 or 1901 at 200 ng/ml in PBS+BSA (10 mg/ml) and then transferred onto the TGF-β-coated Nunc Maxisorb ELISA plate. After incubation for 2 h at 37° C. plates were washed, Avidine-HRP added and incubated for 1 h at 37° C. Plates washed again, TMB substrate was added and bound biotinylated antibody was quantitated by measuring color development in an ELISA reader at a wave length of 450 nm.
The potency of the humanized LCR13A1 IgG4 antibody variants to compete with the parental murine antibody for binding to TGFb1 was assessed by ELISA. The six IgG4 variants LCR13A1_VH_GLv3_LCR13A1_VK_GLv3 (LCR13A1-2A), LCR13A1_VH_GLv1_03_LCR13A1_VK_GLv3 (LCR13A1-2B), LCR13A1_VH_GLv3_LCR13A1_VK_GLv1_03 (LCR13A1-2C), LCR13A1_VH_GLv1_03_LCR13A1_VK_GLv1_03 (LCR13A1-2D), LCR13A1_VH_GLv1_03_LCR13A1_VK_GLv1_04 (LCR13A1-2E) and LCR13A1_VH_GLv1_03_LCR13A1_VK_GLv1_05 (LCR13A1-2F) competed with the parental murine 13A1 antibody for binding to TGFb1 in a dose-dependent manner (FIG. 17).

Assay [5] has as its target T1, human recombinant TGF-b1. Nature of the assay: TGFb specificity ELISA, HEK293-6E supernatant.
Assay [6] deals with T1, human recombinant TGF-b1. Nature of the assay: SPR (Biacore T200), 10 nM Fab over amine-coupled TGFb1 (492 RUs); reference of the ranking. As for the experimental part:
FIG. 27 provides Biacore analysis of the new mutant variant antibodies and compares the new mutants versus parent variant 13A1-2F and versus mu13A1. Selected variants have different monovalent (huIgG1 stabilized Fab format). Biacore binding kinetics, range from lower to higher than the parental mouse 13A1 (mu13A1, hybrid with mouse VK/VH and huCK/huCH1). The data presented is ka, kd and apparent KD. TGFb1 (chip): 492 Rus, Fabs: 10 nM, Flow rate: 30 ul/min, Contact time: 510s, Diss. Time: 600s. Quality: Chi(2)<=1% Rmax and U score <=5. Data is presented for mutant variant antibodies 13A1_AF, 13A1_AG, 13A1_AH, 13A1_BF, 13A1_BG, 13A1_BH, 13A1_CF, 13A1_CG, 13A1_CH, 13A1_DF, 13A1_DG, 13A1_DH, 13A1_EF, 13A1_EG and 13A1_EH.
SPR binding analysis of Fabs: Experiments were performed using the Biacore T200 equipped with the Series S sensor chip CMS (GE Healthcare, cat. #BR-1005-30). The instrument temperature was set at 25° C. for all steps in the analysis while the compartment temperature was set at 10° C. All the assays were performed using the running buffer HBS-EP+ 1×. Recombinant TGF-β1 (Biocat, cat. #TG1-H4212-50 ug-AC) was immobilized with the standard amine-coupling chemistry using a solution of the ligand at 1 ug/mL in acetate, pH 4.5. Recombinant TGF-β1 was injected for several minutes to achieve a target density of 492 RUs. […]
For orientation: SPR reads the build-up and loss of mass on a sensor chip optically.

Positions count from the first letter of the chain named. Numbers in names are those of the source.

T1 sequence (P01137 279-390 limits assumed): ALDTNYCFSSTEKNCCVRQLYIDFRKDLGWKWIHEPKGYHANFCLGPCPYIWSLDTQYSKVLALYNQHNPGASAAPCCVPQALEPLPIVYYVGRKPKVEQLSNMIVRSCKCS

B1: LCR13A1_scFv (soluble scFv of murine 13A1) (scFv)
scFv: DIVLTQSPASLAVSLGQRATISCRASESVDNYGISFLNWFQQKPGQPPKLLIYAASNQGSGVPARFSGSGSGTDFSLNIHPMEEDDTGMYFCQQSKEVPRTFGGGTKLEIKRTVAARQEGGSGEGGSGESNAAAEVQLQQSGTVLARPGASVKMSCKTSGYTFTNYWMHWVRQRPGQGLEWIGTIYPGNSDTNYNQKFKDKAKLTAVTSATTAYMELSSLTNEDSAVYFCTREDSRSLYYNGWDYFDYWGQGTLVTVSSASTKAS
notes: Orientation VL-linker-VH; expressed in E. coli from pCHV101; also called LCR13A1 soluble scFv
As for B1, the binding result with human recombinant TGF-b1 [1] is listed as “binds”.

B2: LCR13A1 Phage (murine 13A1 scFv fused to pIII on filamentous phage) (scFv)
scFv: B1 scFv
notes: not shown: pIII coat protein of filamentous bacteriophage (fusion partner from phagemid pCHV101)
B2: the binding result with human recombinant TGF-b1 [2] was “binds”.

B3: 13A1_GLv1_scFv (CDR-grafted scFv, IGKV7-3*01/IGHV1-46*01) (scFv)
scFv: DIVLTQSPASLAVSPGQRATITCRASESVDNYGISFLNWYQQKPGQPPKLLIYAASNQGSGVPARFSGSGSGTDFTLTINPVEADDTANYYCQQSKEVPRTFGGGTKLEIKRTVAARQEGGSGEGGSGESNAAAQVQLVQSGAEVKKPGASVKVSCKASGYTFTNYWMHWVRQAPGQGLEWIGTIYPGNSDTNYNQKFKGRVTMTRDTSTSTVYMELSSLRSEDTAVYYCTREDSRSLYYNGWDYFDYWGQGTLVTVSSASTKAS
notes: Orientation VK-linker-VH; expressed in E. coli from pCHV101; also called LCR13A1_Glv1 scFv
As to B3, the binding result with human recombinant TGF-b1 [3] is given as “binds”.

B4: LCR13A1_VH_GLv3_LCR13A1_VK_GLv3 (LCR13A1-2A) IgG4(S228P) (antibody, V domains shown)
VH: QVQLVQSGSELKKPGASVKVSCKTSGYTFTNYWMHWVRQAPGQGLEWIGTIYPGNSDTNYNQKFQGRVTITRDTSASTAYMELSSLRSEDTAVYFCTREDSRSLYYNGWDYFDYWGQGTTVTVSS
VL: DIVMTQSPDSLAVSLGERATINCKSSESVDNYGISFLNWFQQKPGKAPKLLIYAASNQGSGVPDRFSGSGSGTDFTLTISSLQAEDVAVYFCQQSKEVPRTFGGGTKLEIK
notes: Human IgG4 (IGHG4*01 with S228P) and human CK*01; also called Ab 2A
For B4, the binding result in the assay with human recombinant TGF-b1 [4] is on record as “binds”.

B5: 13A1_Glv1 (graft) human IgG1 (antibody, V domains shown)
VH: B4 VH with S9A, L11V, T24A, Q65K, I70M, A76T, A79V, F95Y, T120L
VL: DIVLTQSPASLAVSPGQRATITCRASESVDNYGISFLNWYQQKPGQPPKLLIYAASNQGSGVPARFSGSGSGTDFTLTINPVEADDTANYYCQQSKEVPRTFGGGTKVEIK
notes: also called LCR13A1_GLv1; grafted human IgG1 13A1
Consider B5, for which the binding result with human recombinant TGF-b1 [5] is recorded as “binds”.

B6: LCR13A1_VH_GLv3_LCR13A1_VK_GLv1_03 (LCR13A1-2C) IgG4(S228P) (antibody, V domains shown)
VH: B4 VH
VL: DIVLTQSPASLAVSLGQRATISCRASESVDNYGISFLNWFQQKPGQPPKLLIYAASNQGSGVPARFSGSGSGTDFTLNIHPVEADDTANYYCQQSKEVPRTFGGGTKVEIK
notes: Human IgG4 (IGHG4*01 with S228P) and human CK*01; also called Ab 2C
With B6, in the assay with human recombinant TGF-b1 [4], the binding result is “binds”.

B7: LCR13A1_VH_GLv1_03_LCR13A1_VK_GLv3 (LCR13A1-2B) IgG4[S228P] (antibody, V domains shown)
VH: QVQLVQSGSVLAKPGASVKVSCKASGYTFTNYWMHWVRQAPGQGLEWIGTIYPGNSDTNYNQKFKDRAKLTAVTSTSTVYMELSSLRSEDTAVYYCTREDSRSLYYNGWDYFDYWGQGTLVTVSS
VL: DIVMTQSPDSLAVSLGERATINCKSSESVDNYGISFLNWFQQKPGKAPKLLIYAASNQGSGVPDRFSGSGSGTDFTLTISSLQAEDVAVYFCQQSKEVPRTFGGGTKLEIKR
notes: VK + CK*01; also called Ab 2B
B7: in the assay with human recombinant TGF-b1 [4], the binding result is “binds”.

B8: LCR13A1_VH_GLv1_03_LCR13A1_VK_GLv1_03 (LCR13A1-2D) IgG4(S228P) (antibody, V domains shown)
VH: B7 VH
VL: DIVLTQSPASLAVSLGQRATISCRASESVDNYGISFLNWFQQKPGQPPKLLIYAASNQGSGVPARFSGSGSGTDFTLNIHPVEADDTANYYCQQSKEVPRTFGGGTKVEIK
notes: Human IgG4 (IGHG4*01 with S228P) and human CK*01; also called Ab 2D
As for B8, the binding result in the assay with human recombinant TGF-b1 [4] is “binds”.

B9: LCR13A1_VH_GLv1_03_LCR13A1_VK_GLv1_05 (LCR13A1-2F) IgG4[S228P] (antibody, V domains shown)
VH: B7 VH
VL: DIVMTQSPDSLAVSLGERATISCRASESVDNYGISFLNWFQQKPGQPPKLLIYAASNQGSGVPSRFSGSGSGTDFTLNIHPLEAEDAATYYCQQSKEVPRTFGGGTKVEIKR
notes: VK + CK*01; also called Ab 2F; hIgG4 13A1-2F
Take B9: the binding result in the assay with human recombinant TGF-b1 [4] is reported as “binds”.

B10: LCR13A1_VH_GLv1_03_LCR13A1_VK_GLv1_04 (LCR13A1-2E) IgG4(S228P) (antibody, V domains shown)
VH: B7 VH
VL: B5 VL with P15L, T22S, Y40F, A64S, T78N, N80H, V82L, D85E, T87A, N89A
notes: Human IgG4 (IGHG4*01 with S228P) and human CK*01; also called Ab 2E
As for B10, the binding result in the assay with human recombinant TGF-b1 [4] was “binds”.

B11: 13A1 mouse parental hybrid stabilized Fab (mu13A1) (Fab, V domains shown)
VH: EVQLQQSGTVLARPGASVKMSCKTSGYTFTNYWMHWVRQRPGQGLEWIGTIYPGNSDTNYNQKFKDKAKLTAVTSATTAYMELSSLTNEDSAVYFCTREDSRSLYYNGWDYFDYWGQGTTLTVSS
VL: not shown
notes: also called parental mouse Fab [chimeric, mVHhCH1/mVKhCK]; LCR13A1_VK(murine) + LCR13A1_VH(murine)
B11: the binding result in the assay with human recombinant TGF-b1 [6] was “binds”.

The record behind these values is US20210403546A1 (LUDWIG INSTITUTE FOR CANCER RESEARCH, published 2021).
